Results as given in patent US20050282740A1.
Like-named read-outs stand apart in the source and are kept apart here. One block for each substance: values may come before it.

What was measured:
[1] = target: proteins from 32P or 35S-labeled HeLa cell lysates; assay: GST pull-down from labeled HeLa lysates pretreated with CIP, PP1 and PP2A
[2] = target: WFYpSPFLE; assay: fluorescence anisotropy, GST-WW-domain on fluorescein-labelled peptide
[3] = target: EQPLpTPVTDL; assay: as above
[4] = target: WFYpSPFLE; assay: fluorescence anisotropy; high affinity site
[5] = target: WFYpSPFLE; assay: fluorescence anisotropy; low affinity site
[6] = target: tau peptide (pT-231), SEQ ID NO: 20; assay: ELISA on tau peptides
[7] = target: Amyloid Precursor Protein Peptide … (pT-668); assay: ELISA on amyloid precursor protein peptide; binder not labelled in the row, taken as Pin1
[8] = target: tau peptide (pT-231), SEQ ID NO: 20; assay: ELISA on tau peptides; remark: listed apart in the source
[9] = target: tau peptide (pT-231), SEQ ID NO: 20; assay: ELISA on tau peptide
[10] = target: WFYpSPFLE; assay: fluorescence anisotropy with fluorescein labeled Pintide; high affinity site
[11] = target: WFYpSPFLE; assay: fluorescence anisotropy; Table 2 prints 1.0 for this pair
[12] = target: tau peptide … (pT-231), SEQ ID NO: 29; assay: ELISA on tau peptide
[13] = target: GST-Pin1 (human) (UniProt Q13526); assay: competition with MPM-2 antigens for GST-Pin1, pull-down and MPM-2 immunoblot
[14] = target: GST-WW-domain of Pin1 (human) (UniProt Q13526); assay: competition with MPM-2 antigens for GST-WW-domain of Pin1, pull-down and MPM-2 immunoblot

Substance: GST-Pin1^R14A (from UniProt Q13526 1-163) (enzyme)
Kd [4]: 2 µM | Kd [5]: 13.5 µM

Substance: GST-Pin1^S16A (from UniProt Q13526 1-163) (enzyme)
Kd [4]: 1.2 µM | Kd [5]: 10.5 µM

Substance: GST-Pin1^S16E (from UniProt Q13526 1-163) (enzyme)
Kd [5]: 10.5 µM

Substance: GST-Pin1^S18E (from UniProt Q13526 1-163) (enzyme)
Kd [4]: 1 µM | Kd [5]: 12 µM

Substance: Pin1 PPIase domain (from UniProt Q13526 47-163) (enzyme)
Kd [5]: 15 µM

Substance: Pin1^R14A (from UniProt Q13526 1-163) (enzyme)
Binding (OD @ 405 nm) [12]: 1.3 OD 405 nm | Kd [10]: 2 µM

Substance: Pin1^Y23F (from UniProt Q13526 1-163) (enzyme)
Kd [10]: 5 µM

Substance: Pintide (WFYpSPRLKK) (peptide)
peptide concentration at which significant competition was detected [13]: 50 µM | peptide concentration of complete competition [13]: 250 to 500 µM | peptide concentration at which significant competition was detected [14]: 50 µM | peptide concentration of complete competition [14]: 250 to 500 µM

Other lines, results leading:

fold reduction of binding after pretreatment of lysates with Ser phosphatases [1]: 10 fold
Substance: GST-Nedd4 WW-domain-1 (from UniProt P46935 249-282)

fold reduction of binding after pretreatment of lysates with Ser phosphatases [1]: 10 fold | Kd [2]: 10 µM | Kd [3]: 20 µM
Substance: GST-Nedd4 WW-domain-2 (from UniProt P46935 405-438)

Kd [4]: 1.2 µM | Kd [5]: 13 µM
Substance: GST-Pin1 (from UniProt Q13526 1-163) (enzyme)

Kd [5]: 14 µM
Substance: GST-Pin1^W34A (from UniProt Q13526 1-163) (enzyme)

Kd [5]: 13.5 µM
Substance: GST-Pin1^Y23A (from UniProt P08515 1-218; Q13526 1-163) (enzyme)

Kd [2]: 1 µM | Kd [3]: 2.2 µM
Substance: GST-WW-domain of Pin1 (from UniProt Q13526 1-54)

Kd [4]: 1.2 µM | Kd [6]: 0.04 µM | Binding (OD @ 405 nm) [7]: 1.81 OD 405 nm | Kd [8]: 0.025 µM | Binding (OD @ 405 nm) [9]: 1.46 OD 405 nm | Kd [5]: 11 µM | Kd [10]: 1.2 µM
Substance: Pin1 (from UniProt Q13526 1-163) (enzyme)

Kd [4]: 1 µM | Kd [11]: 1.2 µM
Substance: Pin1 WW-domain (from UniProt Q13526 1-54)

Kd [10]: 1.2 µM
Substance: Pin1^S16A (from UniProt Q13526 1-163) (enzyme)
